Test results as given in patent publication US20100124555A1, “Compositions and Methods for Treating Pancreatic Tumors” (UNIVERSITE DE LA MEDITERRANEE, priority 2007, published 2010).

Legend:
SOJ-6 cells [1] = assay: Annexin V / PI apoptosis assay; type: cell-based, human; settings: antibodies 20 μg/ml, tunicamycin 25 or 50 μg/ml
Protocol: SOJ-6 cells (20.10^4 cells per well) were seeded onto 24 wells plates 72H before to start the experiment. Cells were incubated either with 20 μg/ml 16D10 IgM, or 20 μg/ml of a further recombinant 16D10 IgG1 antibody which contained the 16D10 variable regions linked fused to a human IgG1 constant region and human kappa light region for the heavy and light chains respectively, 25 μg/ml Tunicamycin or 50 μg/ml Tunicamycin. The AnnexinV/PI stainings were performed after 24H of culture using the AnnexinV-FITC Apoptosis Detection Kit I (BD Pharmingen) according to the manufacturer instructions. Stainings were acquired on a FACScan (Becton Dickinson, San Jose, Calif.) and results were analysed using FlowJo Software.

SOJ-6 cells [2] = assay: MTT cell growth and proliferation assay, SOJ-6; type: cell-based, human; settings: SOJ-6, increasing concentrations of antibody, 24 h
Protocol: Cell proliferation was determined using MTT assay as previously described (Mosmann et al., 1983 J Immunol Methods, 65(1-2):55-63). Briefly, cells were seeded at subconfluence in appropriate complete media containing 10% FCS in 96-well culture plates. Media were replaced for 24 h by fresh media with 10% inactivated FCS, including increasing concentrations of antibodies directed against FAPP (pAbL64, mAbJ28 and mAb16D10). Cells were washed with PBS and incubated with 100 μl of MTT (0.5 mg/ml) in complete media for 3 h, washed with PBS and finally incubated with DMSO for 30 min at 37° C. Cell growth was determined by measuring absorbance at 550 nm using a MR 5000 microplate spectrophotometer. All independent determinations were done in triplicate and compared to control.

SOJ-6 cells [3] = assay: Cell-cycle distribution by propidium iodide flow cytometry, SOJ-6; type: cell-based, human; settings: SOJ-6 after mAb16D10 treatment
Protocol: Cells were washed twice using cold PBS 1×/BSA 0.2%/Sodium Azide 0.05% buffer. Staining was performed using the different antibodies during 1H at 4° C. into round 96-well plates using 5×10^4 cells per well. Cells were then washed twice before being incubated with secondary reagents. After two washes, cells were re-suspended before acquisition into PBS1X/Formaldehyde 1%. Stainings were acquired on a FACScan (Becton Dickinson, San Jose, Calif.) and results were analysed using FlowJo Software. SOJ-6 cells pre-treated or not with 5 μg/ml aphidicolin (a reversible inhibitor of eukaryotic nuclear DNA replication, which blocks the cell cycle at early S-phase) for 6 h, were then incubated with mAb16D10 or irrelevant IgM used as a negative control. Cells were released from culture plates with a non-enzymatic cell dissociation solution, washed with PBS^+/+, fixed with 70% ethanol at −20° C. and washed with PBS^+/+. The cells were resuspended in a solution of 400 μg/ml propidium iodide in isoflow buffer and were incubated for 30 min at room temperature as already described [Mi-Lian et al., 2004]. Cell-cycle distribution was detected by flow cytometry and analyzed by Mod Fit software (Verity Software House, Inc., Topsham, Me.). The red fluorescence of single events was recorded using excitation and emission at 488 nm and at 610 nm respectively, to measure the DNA index.
We next wished to know whether mAb16D10-induced apoptosis was due, in part, to the arrest of the cell cycle. Cell cycle distribution of the SOJ-6 cells after treatment was assessed by observing DNA profiles following SOJ-6 cells pre-treated not or with aphidicolin, treated not or with mAb16D10. Each experiment was carried out in triplate. We used a specific DNA marker, Propidium Iodide, to determine the different phases of the cell cycle by flow cytometry. […] Indeed, the shift of cells from the G2/M to the G1/S phase and from the G1/S to the apoptosis was also observed following aphidicolin treatment. […]

[4] = test system: 16D10 antigen on SOJ-6 cells; assay: Flow cytometry detection of antigen at the cell surface, SOJ-6; type: binding, human
Protocol: (§1) Detection of antigens at the surface of SOJ-6 and PANC-1 cells was carried out by indirect fluorescence under the following conditions: cells were released from culture plates by treatment with a non enzymatic dissociation liquid (Calbiochem) for 15 minutes at 37° C. All subsequent steps were carried out at 4° C. The cells were washed with phosphate buffered saline (PBS), fixed with 2% paraformaldehyde in PBS for 15 minutes, and washed with 1% BSA in PBS for 15 minutes. Antigens were exposed for 2 hours to specific antibodies, washed with PBS, and finally incubated for 45 minutes with appropriate FITC-labeled secondary antibodies. Cells were then washed, resuspended in isoflow buffer, and analyzed on Coulter FACSCalibur device.
(§2) Flow cytometry experiments were carried out to investigate whether the antigen recognized by 16D10 was found on the surface of cells. Results are shown in FIGS. 14 and 15, representing SOJ-6 and PANC-1 cells, respectively. […] In each case, 16D10 binding was compared to a negative control and a control mouse IgM (Sigma).

[5] = test system: 16D10 antigen on PANC-1 cells; assay: Flow cytometry detection of antigen at the cell surface, PANC-1; type: binding, human
Protocol: as §1, §2

PANC-1 cells = assay: Cell-cycle distribution by propidium iodide flow cytometry, PANC-1; type: cell-based, human

B1: 16D10: IgM monoclonal antibody recognizing FAPP/BSDL; producing cells deposited with the CNCM under the number I-3188 (antibody, listed as Mus musculus, V domains shown)
VH: QVQLQQSDAELVKPGASVKISCKASGYTFTDHAIHWVKQKPEQGLEWIGYISPGNDVIKFNEKFKGKATLTADKSSSTAYMQLNSLTSEDSAVYFCKRSEGGVFDYWGQGTTLTVS
VL: NIMMTQSPSSLAVSAGEKVTMSCKSSQSVLYSSNQKNFLAWYQQKPGQSPKLLIYWASTRESGVPDRFTGSGSGTDFTLTISSVQAEDLAVYYCHQYLSSYTFGGGTKLEIK
apoptosis by Annexin V and Annexin V/PI staining (SOJ-6 cells [1]): induced significant levels of apoptosis | % growth of cells (SOJ-6 cells [2]): does cause a decrease in SOJ-6 cells | apoptotic cells (SOJ-6 cells [3]): 6% | cells in G1/S (SOJ-6 cells [3]): 96% | cells in G2/M phase (SOJ-6 cells [3]): 4% | effect of trypsin incubation on binding to SOJ-6 cells ([4]; antibody incubated with trypsin): substantially decrease the binding | binding to antigen on SOJ-6 cells ([4]; flow cytometry / FACS): found to bind antigen present on SOJ-6 cells | binding to antigen on PANC-1 cells [5]: did not bind antigen present on PANC-1 cells | effect on the cell cycle (PANC-1 cells): no effect on the cell cycle was observed
